According to the supplement of paper PMC9112550, “Optimization of the antimicrobial peptide Bac7 by deep mutational scanning” (BMC Biology, 2022):

System: Escherichia coli TOP10
Assay: shrunken log2 fold change of peptide-encoding DNA abundance (4.5 h post-induction vs induction); higher = less antimicrobial activity (less host growth inhibition)
Conditions: time post-induction: 4.5 h; library: site-saturation at positions 5, 18, 19, 20
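Also: peptides expressed intracellularly from a pBAD plasmid library in pooled LB shake-flask culture, induced with 0.3% L-arabinose, DNA abundance read by NGS, three biological replicates, DESeq2 with apeglm shrinkage.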

| Sequence | shrunken log2 fold change |
| --- | --- |
| RRIRWRPPRLPRPRPRPHLCPRP | -0.147 |
| RRIRWRPPRLPRPRPRPHLEPRP | -0.16 |
| RRIRWRPPRLPRPRPRPHLRPRP | 0.039 |
| RRIRWRPPRLPRPRPRPHMTPRP | 0.118 |
| RRIRWRPPRLPRPRPRPHNLPRP | -0.414 |
| RRIRWRPPRLPRPRPRPHQFPRP | -0.843 |
| RRIRWRPPRLPRPRPRPHQLPRP | 0.117 |
| RRIRWRPPRLPRPRPRPHQQPRP | -0.0485 |
| RRIRWRPPRLPRPRPRPHRTPRP | -0.168 |
| RRIRWRPPRLPRPRPRPHTYPRP | -0.578 |
| RRIRWRPPRLPRPRPRPIAYPRP | 0.000575 |
| RRIRWRPPRLPRPRPRPICDPRP | 0.0755 |
| RRIRWRPPRLPRPRPRPIDDPRP | -0.152 |
| RRIRWRPPRLPRPRPRPIDVPRP | -0.298 |
| RRIRWRPPRLPRPRPRPIGLPRP | 0.0952 |
| RRIRWRPPRLPRPRPRPIHCPRP | 0.0948 |
| RRIRWRPPRLPRPRPRPIHVPRP | -0.0677 |
| RRIRWRPPRLPRPRPRPIIDPRP | 0.0788 |
| RRIRWRPPRLPRPRPRPIIHPRP | -0.463 |
| RRIRWRPPRLPRPRPRPIIPPRP | -0.104 |
| RRIRWRPPRLPRPRPRPILGPRP | -0.0119 |
| RRIRWRPPRLPRPRPRPILQPRP | 0.0247 |
| RRIRWRPPRLPRPRPRPILTPRP | 0.00604 |
| RRIRWRPPRLPRPRPRPIMIPRP | -0.28 |
| RRIRWRPPRLPRPRPRPINKPRP | -0.431 |

| Sequence | shrunken log2 fold change |
| --- | --- |
| RRIRWRPPRLPRPRPRPISDPRP | -0.154 |
| RRIRWRPPRLPRPRPRPISSPRP | -0.0629 |
| RRIRWRPPRLPRPRPRPISYPRP | -0.0222 |
| RRIRWRPPRLPRPRPRPITQPRP | -0.0367 |
| RRIRWRPPRLPRPRPRPIVFPRP | -0.125 |
| RRIRWRPPRLPRPRPRPIWNPRP | -0.114 |
| RRIRWRPPRLPRPRPRPKAKPRP | 0.166 |
| RRIRWRPPRLPRPRPRPKDEPRP | 0.0784 |
| RRIRWRPPRLPRPRPRPKEDPRP | 0.0809 |
| RRIRWRPPRLPRPRPRPKEFPRP | -0.228 |
| RRIRWRPPRLPRPRPRPKEIPRP | 0.487 |
| RRIRWRPPRLPRPRPRPKELPRP | 0.501 |
| RRIRWRPPRLPRPRPRPKFHPRP | -0.249 |
| RRIRWRPPRLPRPRPRPKGGPRP | 0.536 |
| RRIRWRPPRLPRPRPRPKGLPRP | -0.0645 |
| RRIRWRPPRLPRPRPRPKHAPRP | 0.222 |
| RRIRWRPPRLPRPRPRPKHPPRP | 0.442 |
| RRIRWRPPRLPRPRPRPKITPRP | 0.0282 |
| RRIRWRPPRLPRPRPRPKKGPRP | 0.22 |
| RRIRWRPPRLPRPRPRPKKKPRP | -0.139 |
| RRIRWRPPRLPRPRPRPKMAPRP | 0.859 |
| RRIRWRPPRLPRPRPRPKMKPRP | 0.193 |
| RRIRWRPPRLPRPRPRPKMNPRP | 0.0146 |
| RRIRWRPPRLPRPRPRPKNSPRP | 0.318 |
| RRIRWRPPRLPRPRPRPKNVPRP | -0.0641 |

| Sequence | shrunken log2 fold change |
| --- | --- |
| RRIRWRPPRLPRPRPRPKPPPRP | 0.821 |
| RRIRWRPPRLPRPRPRPKRNPRP | 0.432 |
| RRIRWRPPRLPRPRPRPKRPPRP | 0.873 |
| RRIRWRPPRLPRPRPRPKSAPRP | 0.606 |
| RRIRWRPPRLPRPRPRPKSWPRP | 0.389 |
| RRIRWRPPRLPRPRPRPKWEPRP | 0.0855 |
| RRIRWRPPRLPRPRPRPKWTPRP | -0.119 |
| RRIRWRPPRLPRPRPRPKWWPRP | 0.266 |
| RRIRWRPPRLPRPRPRPLADPRP | 1.06 |
| RRIRWRPPRLPRPRPRPLCMPRP | -0.177 |
| RRIRWRPPRLPRPRPRPLEDPRP | 0.047 |
| RRIRWRPPRLPRPRPRPLEVPRP | -0.0802 |
| RRIRWRPPRLPRPRPRPLFTPRP | -0.137 |
| RRIRWRPPRLPRPRPRPLGKPRP | 0.136 |
| RRIRWRPPRLPRPRPRPLGQPRP | 0.0349 |
| RRIRWRPPRLPRPRPRPLHLPRP | -0.234 |
| RRIRWRPPRLPRPRPRPLIEPRP | 0.00804 |
| RRIRWRPPRLPRPRPRPLINPRP | -0.229 |
| RRIRWRPPRLPRPRPRPLIQPRP | 0.279 |
| RRIRWRPPRLPRPRPRPLISPRP | -0.0451 |
| RRIRWRPPRLPRPRPRPLKSPRP | 0.183 |
| RRIRWRPPRLPRPRPRPLMGPRP | -0.276 |
| RRIRWRPPRLPRPRPRPLMHPRP | 0.0245 |
| RRIRWRPPRLPRPRPRPLNPPRP | -0.0128 |
| RRIRWRPPRLPRPRPRPLNWPRP | 0.101 |

| Sequence | shrunken log2 fold change |
| --- | --- |
| RRIRWRPPRLPRPRPRPLNYPRP | -0.546 |
| RRIRWRPPRLPRPRPRPLPPPRP | 0.686 |
| RRIRWRPPRLPRPRPRPLPSPRP | 0.515 |
| RRIRWRPPRLPRPRPRPLPTPRP | 0.463 |
| RRIRWRPPRLPRPRPRPLQKPRP | 1.73 |
| RRIRWRPPRLPRPRPRPLQPPRP | 0.54 |
| RRIRWRPPRLPRPRPRPLQWPRP | 0.346 |
| RRIRWRPPRLPRPRPRPLRIPRP | 0.148 |
| RRIRWRPPRLPRPRPRPLSDPRP | 0.254 |
| RRIRWRPPRLPRPRPRPLTCPRP | 0.0568 |
| RRIRWRPPRLPRPRPRPLTIPRP | -0.162 |
| RRIRWRPPRLPRPRPRPLTNPRP | -0.114 |
| RRIRWRPPRLPRPRPRPLTPPRP | 0.412 |
| RRIRWRPPRLPRPRPRPLTWPRP | 0.302 |
| RRIRWRPPRLPRPRPRPLWIPRP | -0.115 |
| RRIRWRPPRLPRPRPRPLWVPRP | 0.0766 |
| RRIRWRPPRLPRPRPRPLYGPRP | -0.369 |
| RRIRWRPPRLPRPRPRPMASPRP | 0.659 |
| RRIRWRPPRLPRPRPRPMAVPRP | 0.173 |
| RRIRWRPPRLPRPRPRPMCMPRP | 0.0952 |
| RRIRWRPPRLPRPRPRPMCWPRP | 0.883 |
| RRIRWRPPRLPRPRPRPMDAPRP | 0.051 |
| RRIRWRPPRLPRPRPRPMDNPRP | -0.0894 |
| RRIRWRPPRLPRPRPRPMDSPRP | -0.198 |
| RRIRWRPPRLPRPRPRPMETPRP | 1.73 |

| Sequence | shrunken log2 fold change |
| --- | --- |
| RRIRWRPPRLPRPRPRPMEYPRP | 0.0388 |
| RRIRWRPPRLPRPRPRPMFHPRP | -0.271 |
| RRIRWRPPRLPRPRPRPMGQPRP | 0.0149 |
| RRIRWRPPRLPRPRPRPMHEPRP | -0.0461 |
| RRIRWRPPRLPRPRPRPMHNPRP | -0.218 |
| RRIRWRPPRLPRPRPRPMHQPRP | 0.067 |
| RRIRWRPPRLPRPRPRPMIYPRP | -0.542 |
| RRIRWRPPRLPRPRPRPMKNPRP | 0.226 |
| RRIRWRPPRLPRPRPRPMKPPRP | -0.0125 |
| RRIRWRPPRLPRPRPRPMKQPRP | -0.208 |
| RRIRWRPPRLPRPRPRPMLSPRP | -0.0162 |
| RRIRWRPPRLPRPRPRPMQVPRP | -0.0191 |
| RRIRWRPPRLPRPRPRPMRAPRP | 1.2 |
| RRIRWRPPRLPRPRPRPMSRPRP | 0.063 |
| RRIRWRPPRLPRPRPRPMVWPRP | 0.025 |
| RRIRWRPPRLPRPRPRPMWHPRP | -0.139 |
| RRIRWRPPRLPRPRPRPMWNPRP | -0.0699 |
| RRIRWRPPRLPRPRPRPMWRPRP | 0.328 |
| RRIRWRPPRLPRPRPRPMWSPRP | 0.266 |
| RRIRWRPPRLPRPRPRPNAFPRP | 0.0579 |
| RRIRWRPPRLPRPRPRPNCLPRP | 0.257 |
| RRIRWRPPRLPRPRPRPNCMPRP | -0.302 |
| RRIRWRPPRLPRPRPRPNDCPRP | -0.0115 |
| RRIRWRPPRLPRPRPRPNEEPRP | -0.0212 |
| RRIRWRPPRLPRPRPRPNEFPRP | -0.161 |

| Sequence | shrunken log2 fold change |
| --- | --- |
| RRIRWRPPRLPRPRPRPNETPRP | 0.0101 |
| RRIRWRPPRLPRPRPRPNGEPRP | -0.0407 |
| RRIRWRPPRLPRPRPRPNHFPRP | -0.429 |
| RRIRWRPPRLPRPRPRPNHTPRP | -0.323 |
| RRIRWRPPRLPRPRPRPNKGPRP | -0.346 |
| RRIRWRPPRLPRPRPRPNKSPRP | 0.0866 |
| RRIRWRPPRLPRPRPRPNLHPRP | -0.269 |
| RRIRWRPPRLPRPRPRPNLSPRP | -0.197 |
| RRIRWRPPRLPRPRPRPNMHPRP | -0.00977 |
| RRIRWRPPRLPRPRPRPNNRPRP | -0.559 |
| RRIRWRPPRLPRPRPRPNPTPRP | -0.0571 |
| RRIRWRPPRLPRPRPRPNRIPRP | -0.115 |
| RRIRWRPPRLPRPRPRPNTQPRP | 0.448 |
| RRIRWRPPRLPRPRPRPNVFPRP | -0.304 |
| RRIRWRPPRLPRPRPRPNVMPRP | -0.00962 |
| RRIRWRPPRLPRPRPRPNWIPRP | 0.149 |
| RRIRWRPPRLPRPRPRPNWNPRP | -0.0303 |
| RRIRWRPPRLPRPRPRPNWVPRP | 0.0816 |
| RRIRWRPPRLPRPRPRPPCEPRP | 0.379 |
| RRIRWRPPRLPRPRPRPPCLPRP | 0.186 |
| RRIRWRPPRLPRPRPRPPDYPRP | 0.184 |
| RRIRWRPPRLPRPRPRPPEEPRP | 1.26 |
| RRIRWRPPRLPRPRPRPPEFPRP | 0.094 |
| RRIRWRPPRLPRPRPRPPFTPRP | 0.21 |
| RRIRWRPPRLPRPRPRPPFYPRP | -0.00501 |
